Source: publication doi:10.1101/226712

Biological target: ClpXP (ClpX6P14) with Cy3-labeled ClpPQ48C, immobilized through biotinylated ClpX6 (Escherichia coli) (UniProt P0A6H1)
Assay: single-molecule TIRF fluorescence with alternating laser excitation

Row | total dwell time (Δτ, bound and processed) | Substance
1 | 7.3 s | Titin-I27 V13P with the C-terminal ssrA tag, Cy5-labeled at Cys (domain or fragment)
2 | 7.5 s | Titin-I27 wild-type with the C-terminal ssrA tag, Cy5-labeled at Cys (domain or fragment)
